The target of assay [1] is CD209 (DC-SIGN) on monocyte-derived dendritic cells (human) (UniProt Q9NNX6). As to the kind of experiment: flow cytometry, percent of MoDCs positive for calcein after monospecific anti-CD209 protein A immunoliposomes (FIG. 4A).
For assay [2] the target is unchanged. As to the kind of experiment: flow cytometry, right shift of the whole histogram vs. control peak (FIG. 1). (In general: Flow cytometry measures light scatter and fluorescence of single cells or particles in a stream.)
Assay [3] has the same target. The experiment in a line: flow cytometry; calcein signal of immunoliposomes relative to FITC signal of the mAb.

Sequence of UniProt Q9NNX6 (Q9NNX6 whole entry): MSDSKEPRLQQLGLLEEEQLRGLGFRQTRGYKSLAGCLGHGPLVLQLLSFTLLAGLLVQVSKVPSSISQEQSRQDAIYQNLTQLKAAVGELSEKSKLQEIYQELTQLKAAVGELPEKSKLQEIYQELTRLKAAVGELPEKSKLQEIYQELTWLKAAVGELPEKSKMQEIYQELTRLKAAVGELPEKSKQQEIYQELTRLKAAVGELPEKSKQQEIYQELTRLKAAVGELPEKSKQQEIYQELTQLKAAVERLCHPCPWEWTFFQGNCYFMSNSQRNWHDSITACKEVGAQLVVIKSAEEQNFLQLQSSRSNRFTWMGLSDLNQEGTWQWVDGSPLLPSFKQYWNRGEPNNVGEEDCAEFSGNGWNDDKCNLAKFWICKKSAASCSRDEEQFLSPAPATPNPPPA

As for “CD209-specific mAb derived from clone 120507 (IgG2b), R&D Systems (antibody)”, the liposomal targeting efficacy in assay [1] was 83.3%. Further, the percent of cells targeted in assay [2] was found to be 100%. Also, the TEILS (immunoliposomal net targeting efficacy) in assay [3] was 110%.

These data come from patent US20050142114A1.
